Target: MAPKAP Kinase II (MK2)

WLRRIKA showed a % of … [SEQ ID NO: 115] Reaction Velocity at an Inhibitor Concentration of 100 µM of 394%.
